Measurements: patent US9157088B2, “Transferases, epimerases, polynucleotides encoding these and uses thereof” (priority 2007, dated 2015)

B1: kiwifruit GDP-L-Galactose Guanyltransferase EST 319998 (Actinidia chinensis var. chinensis) (protein)
chain: MLKIKRVPTVVSNFQKDEAEDGARSGGGCGRNCLQKCCIQGAKLPLYAFKRVKEVVGEKGLLAVDDEEAPVAFLDSLLLGEWEDRVQRGLFRYDVTACETKVIPGEYGFIAQLNEGRHLKKRPTEFRVDKVLQPFDESKFNFTKVGQEEVLFQFEASDDNEVQFFPNAPVDVENSPSVVAINVSPIEYGHVLLIPRILECLPQRIDRESFLLALHMAAEAGNPYFRLGYNSLGAFATINHLHFQAYYLAVPFPIEKAPTRKITTLNGGVKISDLLNYPVRGLVFEGGNSLEDLSNAVSDSSICLQGNNIPYNVLISDSGKCIFLLPQCYAEKQALGEVSSDLLDTQVNPAVWEISGHMVLKRKEDYEEASEGNAWRLLAEVSLSEERFEEVKALIFEAISCADDRSGSTAENLLEEPDDNPQSRKVANDALNKGSHRGMVPGKQECLVQH

Tests used:
[1] = molecular target: T1, kiwifruit GDP-L-Galactose Guanyltransferase EST 319998 (Actinidia chinensis, UniProt A0A2R6QD99); test: Fixed time transferase assay, aliquots measured using coupling enzymes; assay type: biochemical; details: acceptor Mannose-1-P; 0.057 ug protein
Protocol: The assay for GDP-L-Galactose-1-Phosphate Guanyltransferase was run in 20 mM TrisCl, pH 8.0, GDP-L-Galactose, with 1 mM D-Mannose-1-Phosphate. GDP-L-Galactose was either used directly from the Glycoteam product (in which case high backgrounds were observed due to contaminating L-Galactose-1-Phosphate) or GDP-L-Galactose was generated using the epimerase. In the latter case, 0.21 mg of epimerase was incubated with GDP-D-Mannose in 20 mM Tris Cl pH 8 in a total volume of 400 μL (see Wolucka et al., 2001) for 30 minutes at 20 C and then used directly in the assay at a 1 to 20 dilution. Assays were either terminated after 10 minutes by heating to 100 C for three minutes, or directly coupled to the phosphatase and L-Galactose dehydrogenase to measure product formation during the assay. […] Assays for L-Galactose were linear with added L-Galactose-1-Phosphate over the range measured. […]
(§1) The applicants used two assays to characterise the enzyme, using two sources of the substrate GDP-L-Galactose. […] The applicants either measured the product formed by adding the coupling enzymes in the assay and measuring the time course of NADH formed, or by stopping the reaction after 10 minutes by boiling for 3 minutes and centrifuging. […]

[2] = molecular target: T1, kiwifruit GDP-L-Galactose Guanyltransferase EST 319998; test: Fixed time transferase assay, aliquots measured by LCMS; assay type: biochemical; details: acceptor Mannose-1-P; 0.057 ug protein
Protocol: (§2) The assay for GDP-L-Galactose-1-Phosphate Guanyltransferase was run in 20 mM TrisCl, pH 8.0, GDP-L-Galactose, with 1 mM D-Mannose-1-Phosphate. GDP-L-Galactose was either used directly from the Glycoteam product (in which case high backgrounds were observed due to contaminating L-Galactose-1-Phosphate) or GDP-L-Galactose was generated using the epimerase. In the latter case, 0.21 mg of epimerase was incubated with GDP-D-Mannose in 20 mM Tris Cl pH 8 in a total volume of 400 μL (see Wolucka et al., 2001) for 30 minutes at 20 C and then used directly in the assay at a 1 to 20 dilution. Assays were either terminated after 10 minutes by heating to 100 C for three minutes, or directly coupled to the phosphatase and L-Galactose dehydrogenase to measure product formation during the assay. Heat terminated assays were cooled on ice, centrifuged to remove precipitated protein and L-Galactose assayed using the coupling enzymes described above (see also (Laing et al., 2004)). Assays for L-Galactose were linear with added L-Galactose-1-Phosphate over the range measured. Backgrounds were run using the empty vector control, which gave the same result as a boiled enzyme control.
As an alternative assay, LCMS was used to identify the forward reaction described above as well measure as the reverse pyrophosphorylase reaction where GTP (1 mM) and L-Galactose-1-Phosphate were incubated as above and the formation of GDP-L-Galactose followed. GDP-D-Mannose and GDP-L-Galactose were separated by HPLC before MS. LC-MS employed an LTQ linear ion trap mass spectrometer fitted with an ESI interface (ThermoQuest, Finnigan, San Jose, Calif., USA) coupled to an EttanTM MDLC (GE Healthcare Bio-Sciences). Separation of GDP-D-Mannose and GDP-L-Galactose was achieved using a Hypercarb column (Thermo Electron, USA), 100×2.1 mm maintained at 40 C. Solvents were (A) 50 mM ammonium acetate and (B) acetonitrile and the flow rate was 200 uL/min. The initial mobile phase, 5% B was held for 3 min, then ramped linearly to 20% B at 11 min, held for 5 min, then ramped linearly to 70% B at 19 min and held for 5 min before resetting to the original conditions. Retention times for GDP-D-Mannose and GDP-L-Galactose were 16.8 min and 17.5 min, respectively.
MS data was acquired in the negative mode using both a selective reaction monitoring (SRM) method SRM m/z 604>m/z 344, 362, 424, 442 and a selected ion monitoring (SIM) method SIM m/z 604. This SIM method monitors only the (M-H)— ion for GDP-D-Mannose and GDP-L-Galactose while the SRM method monitors the distinctive daughter ions formed by fragmenting the precursor ion (M-H)— for both compounds. Both methods maximise sensitivity by screening out any chemical noise from other compounds present. The ESI voltage, capillary temperature, sheath gas pressure, sweep gas and auxiliary gas were set at −10 V, 350° C., 25 psi, 3 psi, and 3 psi, respectively. Separation of D-Mannose-1-Phosphate and L-Galactose-1-Phosphate was achieved isocratically using a Hypercarb column (Thermo Electron, USA), 100×2.1 mm maintained at 40° C. Solvents were (A) 20 mM ammonium acetate and (B) methanol and the flow rate was 200 uL/min. Using a mobile phase of 2% B the retention times for D-Mannose-1-Phosphate and L-Galactose-1-Phosphate were 4.3 min and 4.9 min, respectively. MS data was acquired in the negative mode using both a selective reaction monitoring (SRM) method SRM m/z 259>m/z 79, 97 and a selected ion monitoring (SIM) method SIM m/z 259. […]

[3] = assay type: physicochemical
From the text: GDP-L-Galactose (˜50% pure, contaminated with the breakdown products GDP and L-Galactose-1-Phosphate as shown by HPLC and LCMS) and L-Galactose-1-Phosphate were purchased from Glycoteam, Hamburg, Germany. […] Other biochemicals were purchased from Sigma.

[4] = system: Tobacco (Nicotiana benthamiana) leaves; test: Leaf ascorbate after transient transformation of tobacco leaves; assay type: in vivo
From the text: (§3) Tobacco (Nicotiana benthamiana) was transiently transformed with Agrobacterium containing the kiwifruit gene for GDP-L-Galactose Guanyltransferase (EST 319998) cloned in pGreen (Hellens et al., 2000) mixed with Agrobacterium containing the gene for the silencing suppressor P19 as previously described (Hellens et al., 2005). Controls were run using Agrobacterium containing P19 in pGreen alone. Tobacco leaves were harvested 9 days after transformation and frozen in liquid nitrogen.
Ascorbate was extracted as described previously in metaphosphoric acid without reducing agent (Davey et al., 2003; Rassam and Laing, 2005). […]

[5] = system: Nicotiana tabacum ‘Samsun’; test: Leaf ascorbate in stably transformed tobacco; assay type: in vivo; details: two kanamycin resistant lines; FIG. 22
Protocol: Tobacco was transformed with 319998 and Kanamycin resistant lines selected. These plants were transferred to soil and grown until several leaves were expanded. Ascorbate and gene expression was measured in these leaves (FIG. 22).
Nicotiana tabacum ‘Samsun’ was transformed using Agrobacterium tumefaciens strain GV101 carrying the pHex vector containing EST 319998. Methods used were as described by Guerineau et al (1990), except kanamycin was used instead of sulphonamide selective agents at the rate of 100 mg.L-1.

[6] = substrate: O=P(O)(O)O[C@H]1O[C@H](CO)[C@@H](O)[C@H](O)[C@@H]1O; test: purified protein, by the assay type; details: other: varying concentrations of the guanyl acceptor; continuous coupled assay; FIG. 3; pH 8.0; 20.0 °C
[7] = Transferase activity of E. coli expressed enzymes (coupled reaction and LCMS); assay type: biochemical; details: enzyme expressed in E. coli, His tag purified
Protocol: Expression of genes in E. coli. The EST 319998 from young fruit of Actinidia chinensis and At4g26850 were each cloned into pET30A (Novagene, USA), their sequence checked and expressed in E. coli. The N terminal His6 tag was used to purify the protein. An empty vector control was expressed and purified in parallel. Techniques were essentially as described earlier (Laing et al., 2004). In much of this work the His-protein was further purified on a 5 mL HiTrap Q FF column (GE Healthcare), and identical results were obtained with both preparations.
as §2, with “control. […]” for “control.”
as §1

Arabidopsis plants = test: Leaf ascorbate in stably transformed Arabidopsis plants; assay type: in vivo, Arabidopsis thaliana; details: third generation, kanamycin resistant plants; FIGS. 20A-20B
Protocol: In the second generation, up to 12 plants from each line, selected from the kanamycin plates, were grown to a standard size of a complete rosette of leaves in the glasshouse and ascorbate measured (FIG. 19). […] The increased ascorbate ranged up to over 4 times the normal level of ascorbate in Arabidopsis leaves.
Selected plants from the second generation were taken on to the next generation. […] Again the applicants observed plants with leaf ascorbate over 4 times the control level (FIGS. 20A-20B), but again within a line with high ascorbate progeny, there were always plants with high and low ascorbate in spite of all plants coming from a high ascorbate kanamycin resistant parent. […] Regions of complete sequence identity are found, when the 319998 and Arabidopsis sequence is aligned (data not shown). This could account for the apparent silencing seen.

[8] = system: Tobacco (Nicotiana benthamiana) leaves; test: Transferase activity in extracts of transiently transformed tobacco leaves; assay type: in vivo; details: transient expression in pGreen mixed with P19
Protocol: The transferase activity in tobacco leaves was measured by extracting liquid nitrogen ground leaves in approximately five volumes of TrisCI pH 8.0, 2 mM DTT and 1 mM EDTA, centrifuging, desalting the supernatant using a NAP desalting column equilibrated with the same buffer and assaying the enzyme using the coupled assay described above. Protein in the extracts was measured using the Biorad Bradford Coumassie assay (Bradford, 1976) using BSA as a standard.
as §3

| Molecule | transferase activity, Coupled assay [1] | transferase activity, LCMS [2] | acid stability [3] | effect on leaf ascorbate ([4]; His tag in front of the transferase sequence in pGreen, FIGS. 17A-17B) | function of construct in raising leaf ascorbate ([4]; transferase cloned into pGreenII 0229 62-SK (bialaphos resistance), FIGS. 17A-17B) | effect on leaf ascorbate ([4]; transient expression with P19) | increase in leaf ascorbate compared to control leaves ([4]; transient expression with P19, listed as 319998) | effect on leaf ascorbate ([4]; transient expression with P19, listed as 319998_Ac) | increase in leaf ascorbate compared to control leaves ([4]; transient expression with P19, listed as transferase) | Leaf ascorbate levels, average ([4]; transient expression with P19, mean of three plants, three leaves per plant, harvested 9 days after transformation) | Relative amount of ascorbate ([4]; transient expression with P19, relative to controls) | increase in leaf ascorbate [5] | Km [6] | GDP-L-Galactose Guanyltransferase activity of the expressed enzyme [7] | leaf ascorbate relative to the control level (Arabidopsis plants) | GDP-L-Galactose Guanyltransferase activity in leaf extract [8] |
| --- | --- | --- | --- | --- | --- | --- | --- | --- | --- | --- | --- | --- | --- | --- | --- | --- |
| Nc1nc2c(ncn2[C@@H]2O[C@H](COP(=O)(O)OP(=O)(O)OC3O[C@@H](CO)[C@@H](O)[C@@H](O)[C@@H]3O)[C@@H](O)[C@H]2O)c(=O)[nH]1 (stereo partly drawn) [GDP-L-Galactose] | 0.017 nmoles/sec/ug protein | high BG | extremely acid labile |  |  |  |  |  |  |  |  |  |  |  |  |  |
| B1 |  |  |  | active in increasing leaf ascorbate | fully functional | usually was the most effective gene | three fold increase in ascorbate | increased ascorbate levels in the leaf | ~3 fold | 102.0 | 3.0 | 60% | 110 ± 30 µM | could catalyse the conversion of GDP-L-Galactose to L-Galactose-1-P | over 4 times | measurable activity could be measured in the extract of the leaves |
